*1 amine or outer side, *2 acyl side, *3 side chain or, on linkers, in order; H or OH if unused. Side-chain parts run from the residue outwards. The star is where a group is joined. C18 diacid = O=C(O)CCCCCCCCCCCCCCCCC(=O)*; γGlu = O=C(O)[C@H](CCC(=O)[*:2])N[*:1]; Isovaleryl = CC(C)CC(=O)*; AEEA = NCCOCCOCC(=O)O
T1: human neuropeptide Y2 receptor (human, UniProt P49146 1-381)
T1 construct: whole, on cells; also called hNPY2 receptor; hNPY2-R
T1 sequence (looked up): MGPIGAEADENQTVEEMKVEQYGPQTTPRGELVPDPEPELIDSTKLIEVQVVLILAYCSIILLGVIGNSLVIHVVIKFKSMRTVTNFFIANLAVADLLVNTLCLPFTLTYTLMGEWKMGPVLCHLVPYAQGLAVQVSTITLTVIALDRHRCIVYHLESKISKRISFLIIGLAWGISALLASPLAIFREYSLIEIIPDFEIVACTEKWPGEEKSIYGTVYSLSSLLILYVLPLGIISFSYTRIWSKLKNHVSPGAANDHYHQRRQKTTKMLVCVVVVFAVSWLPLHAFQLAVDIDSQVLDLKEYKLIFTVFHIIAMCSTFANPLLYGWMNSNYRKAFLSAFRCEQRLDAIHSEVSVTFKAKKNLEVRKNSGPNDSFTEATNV

B1: Compound 33 (peptide)
peptide: Isovaleryl-APEK([AEEA-AEEA-γGlu-C18 diacid])PEEPASPEELQRYYVELRHYYNWLTRQRY-NH2
SMILES: CC(C)CC(=O)N[C@@H](C)C(=O)N1CCC[C@H]1C(=O)N[C@@H](CCC(=O)O)C(=O)N[C@@H](CCCCNC(=O)COCCOCCNC(=O)COCCOCCNC(=O)CC[C@H](NC(=O)CCCCCCCCCCCCCCCCC(=O)O)C(=O)O)C(=O)N1CCC[C@H]1C(=O)N[C@@H](CCC(=O)O)C(=O)N[C@@H](CCC(=O)O)C(=O)N1CCC[C@H]1C(=O)N[C@@H](C)C(=O)N[C@@H](CO)C(=O)N1CCC[C@H]1C(=O)N[C@@H](CCC(=O)O)C(=O)N[C@@H](CCC(=O)O)C(=O)N[C@@H](CC(C)C)C(=O)N[C@@H](CCC(N)=O)C(=O)N[C@@H](CCCNC(=N)N)C(=O)N[C@@H](Cc1ccc(O)cc1)C(=O)N[C@@H](Cc1ccc(O)cc1)C(=O)N[C@H](C(=O)N[C@@H](CCC(=O)O)C(=O)N[C@@H](CC(C)C)C(=O)N[C@@H](CCCNC(=N)N)C(=O)N[C@@H](Cc1c[nH]cn1)C(=O)N[C@@H](Cc1ccc(O)cc1)C(=O)N[C@@H](Cc1ccc(O)cc1)C(=O)N[C@@H](CC(N)=O)C(=O)N[C@@H](Cc1c[nH]c2ccccc12)C(=O)N[C@@H](CC(C)C)C(=O)N[C@H](C(=O)N[C@@H](CCCNC(=N)N)C(=O)N[C@@H](CCC(N)=O)C(=O)N[C@@H](CCCNC(=N)N)C(=O)N[C@@H](Cc1ccc(O)cc1)C(N)=O)[C@@H](C)O)C(C)C
B2: Compound 40 (peptide)
peptide: Isovaleryl-APEK([AEEA-AEEA-γGlu-C18 diacid])PEEDATPEETQRYYVSLRHYYNWLTRQRY-NH2
SMILES: CC(C)CC(=O)N[C@@H](C)C(=O)N1CCC[C@H]1C(=O)N[C@@H](CCC(=O)O)C(=O)N[C@@H](CCCCNC(=O)COCCOCCNC(=O)COCCOCCNC(=O)CC[C@H](NC(=O)CCCCCCCCCCCCCCCCC(=O)O)C(=O)O)C(=O)N1CCC[C@H]1C(=O)N[C@@H](CCC(=O)O)C(=O)N[C@@H](CCC(=O)O)C(=O)N[C@@H](CC(=O)O)C(=O)N[C@@H](C)C(=O)N[C@H](C(=O)N1CCC[C@H]1C(=O)N[C@@H](CCC(=O)O)C(=O)N[C@@H](CCC(=O)O)C(=O)N[C@H](C(=O)N[C@@H](CCC(N)=O)C(=O)N[C@@H](CCCNC(=N)N)C(=O)N[C@@H](Cc1ccc(O)cc1)C(=O)N[C@@H](Cc1ccc(O)cc1)C(=O)N[C@H](C(=O)N[C@@H](CO)C(=O)N[C@@H](CC(C)C)C(=O)N[C@@H](CCCNC(=N)N)C(=O)N[C@@H](Cc1c[nH]cn1)C(=O)N[C@@H](Cc1ccc(O)cc1)C(=O)N[C@@H](Cc1ccc(O)cc1)C(=O)N[C@@H](CC(N)=O)C(=O)N[C@@H](Cc1c[nH]c2ccccc12)C(=O)N[C@@H](CC(C)C)C(=O)N[C@H](C(=O)N[C@@H](CCCNC(=N)N)C(=O)N[C@@H](CCC(N)=O)C(=O)N[C@@H](CCCNC(=N)N)C(=O)N[C@@H](Cc1ccc(O)cc1)C(N)=O)[C@@H](C)O)C(C)C)[C@@H](C)O)[C@@H](C)O
B3: Compound 35 (peptide)
peptide: Isovaleryl-APEK([AEEA-AEEA-γGlu-C18 diacid])PEEDAAPEETQRYYVSLRHYYNWLTRQRY-NH2
SMILES: CC(C)CC(=O)N[C@@H](C)C(=O)N1CCC[C@H]1C(=O)N[C@@H](CCC(=O)O)C(=O)N[C@@H](CCCCNC(=O)COCCOCCNC(=O)COCCOCCNC(=O)CC[C@H](NC(=O)CCCCCCCCCCCCCCCCC(=O)O)C(=O)O)C(=O)N1CCC[C@H]1C(=O)N[C@@H](CCC(=O)O)C(=O)N[C@@H](CCC(=O)O)C(=O)N[C@@H](CC(=O)O)C(=O)N[C@@H](C)C(=O)N[C@@H](C)C(=O)N1CCC[C@H]1C(=O)N[C@@H](CCC(=O)O)C(=O)N[C@@H](CCC(=O)O)C(=O)N[C@H](C(=O)N[C@@H](CCC(N)=O)C(=O)N[C@@H](CCCNC(=N)N)C(=O)N[C@@H](Cc1ccc(O)cc1)C(=O)N[C@@H](Cc1ccc(O)cc1)C(=O)N[C@H](C(=O)N[C@@H](CO)C(=O)N[C@@H](CC(C)C)C(=O)N[C@@H](CCCNC(=N)N)C(=O)N[C@@H](Cc1c[nH]cn1)C(=O)N[C@@H](Cc1ccc(O)cc1)C(=O)N[C@@H](Cc1ccc(O)cc1)C(=O)N[C@@H](CC(N)=O)C(=O)N[C@@H](Cc1c[nH]c2ccccc12)C(=O)N[C@@H](CC(C)C)C(=O)N[C@H](C(=O)N[C@@H](CCCNC(=N)N)C(=O)N[C@@H](CCC(N)=O)C(=O)N[C@@H](CCCNC(=N)N)C(=O)N[C@@H](Cc1ccc(O)cc1)C(N)=O)[C@@H](C)O)C(C)C)[C@@H](C)O
B4: Compound 36 (peptide)
peptide: Isovaleryl-APEK([AEEA-AEEA-γGlu-C18 diacid])AEEDAEPEELQRYYVSLRHYYNWLTRQRY-NH2
SMILES: CC(C)CC(=O)N[C@@H](C)C(=O)N1CCC[C@H]1C(=O)N[C@@H](CCC(=O)O)C(=O)N[C@@H](CCCCNC(=O)COCCOCCNC(=O)COCCOCCNC(=O)CC[C@H](NC(=O)CCCCCCCCCCCCCCCCC(=O)O)C(=O)O)C(=O)N[C@@H](C)C(=O)N[C@@H](CCC(=O)O)C(=O)N[C@@H](CCC(=O)O)C(=O)N[C@@H](CC(=O)O)C(=O)N[C@@H](C)C(=O)N[C@@H](CCC(=O)O)C(=O)N1CCC[C@H]1C(=O)N[C@@H](CCC(=O)O)C(=O)N[C@@H](CCC(=O)O)C(=O)N[C@@H](CC(C)C)C(=O)N[C@@H](CCC(N)=O)C(=O)N[C@@H](CCCNC(=N)N)C(=O)N[C@@H](Cc1ccc(O)cc1)C(=O)N[C@@H](Cc1ccc(O)cc1)C(=O)N[C@H](C(=O)N[C@@H](CO)C(=O)N[C@@H](CC(C)C)C(=O)N[C@@H](CCCNC(=N)N)C(=O)N[C@@H](Cc1c[nH]cn1)C(=O)N[C@@H](Cc1ccc(O)cc1)C(=O)N[C@@H](Cc1ccc(O)cc1)C(=O)N[C@@H](CC(N)=O)C(=O)N[C@@H](Cc1c[nH]c2ccccc12)C(=O)N[C@@H](CC(C)C)C(=O)N[C@H](C(=O)N[C@@H](CCCNC(=N)N)C(=O)N[C@@H](CCC(N)=O)C(=O)N[C@@H](CCCNC(=N)N)C(=O)N[C@@H](Cc1ccc(O)cc1)C(N)=O)[C@@H](C)O)C(C)C
B5: Compound 37 (peptide)
peptide: Isovaleryl-APEK([AEEA-AEEA-γGlu-C18 diacid])PEEDASPEETQRYEVSLRHYYNWLTRQRY-NH2
SMILES: CC(C)CC(=O)N[C@@H](C)C(=O)N1CCC[C@H]1C(=O)N[C@@H](CCC(=O)O)C(=O)N[C@@H](CCCCNC(=O)COCCOCCNC(=O)COCCOCCNC(=O)CC[C@H](NC(=O)CCCCCCCCCCCCCCCCC(=O)O)C(=O)O)C(=O)N1CCC[C@H]1C(=O)N[C@@H](CCC(=O)O)C(=O)N[C@@H](CCC(=O)O)C(=O)N[C@@H](CC(=O)O)C(=O)N[C@@H](C)C(=O)N[C@@H](CO)C(=O)N1CCC[C@H]1C(=O)N[C@@H](CCC(=O)O)C(=O)N[C@@H](CCC(=O)O)C(=O)N[C@H](C(=O)N[C@@H](CCC(N)=O)C(=O)N[C@@H](CCCNC(=N)N)C(=O)N[C@@H](Cc1ccc(O)cc1)C(=O)N[C@@H](CCC(=O)O)C(=O)N[C@H](C(=O)N[C@@H](CO)C(=O)N[C@@H](CC(C)C)C(=O)N[C@@H](CCCNC(=N)N)C(=O)N[C@@H](Cc1c[nH]cn1)C(=O)N[C@@H](Cc1ccc(O)cc1)C(=O)N[C@@H](Cc1ccc(O)cc1)C(=O)N[C@@H](CC(N)=O)C(=O)N[C@@H](Cc1c[nH]c2ccccc12)C(=O)N[C@@H](CC(C)C)C(=O)N[C@H](C(=O)N[C@@H](CCCNC(=N)N)C(=O)N[C@@H](CCC(N)=O)C(=O)N[C@@H](CCCNC(=N)N)C(=O)N[C@@H](Cc1ccc(O)cc1)C(N)=O)[C@@H](C)O)C(C)C)[C@@H](C)O
B6: Compound 34 (peptide)
peptide: Isovaleryl-APEK([AEEA-AEEA-γGlu-C18 diacid])PEEDASPEELQRYYVSTRHYYNWLTRQRY-NH2
SMILES: CC(C)CC(=O)N[C@@H](C)C(=O)N1CCC[C@H]1C(=O)N[C@@H](CCC(=O)O)C(=O)N[C@@H](CCCCNC(=O)COCCOCCNC(=O)COCCOCCNC(=O)CC[C@H](NC(=O)CCCCCCCCCCCCCCCCC(=O)O)C(=O)O)C(=O)N1CCC[C@H]1C(=O)N[C@@H](CCC(=O)O)C(=O)N[C@@H](CCC(=O)O)C(=O)N[C@@H](CC(=O)O)C(=O)N[C@@H](C)C(=O)N[C@@H](CO)C(=O)N1CCC[C@H]1C(=O)N[C@@H](CCC(=O)O)C(=O)N[C@@H](CCC(=O)O)C(=O)N[C@@H](CC(C)C)C(=O)N[C@@H](CCC(N)=O)C(=O)N[C@@H](CCCNC(=N)N)C(=O)N[C@@H](Cc1ccc(O)cc1)C(=O)N[C@@H](Cc1ccc(O)cc1)C(=O)N[C@H](C(=O)N[C@@H](CO)C(=O)N[C@H](C(=O)N[C@@H](CCCNC(=N)N)C(=O)N[C@@H](Cc1c[nH]cn1)C(=O)N[C@@H](Cc1ccc(O)cc1)C(=O)N[C@@H](Cc1ccc(O)cc1)C(=O)N[C@@H](CC(N)=O)C(=O)N[C@@H](Cc1c[nH]c2ccccc12)C(=O)N[C@@H](CC(C)C)C(=O)N[C@H](C(=O)N[C@@H](CCCNC(=N)N)C(=O)N[C@@H](CCC(N)=O)C(=O)N[C@@H](CCCNC(=N)N)C(=O)N[C@@H](Cc1ccc(O)cc1)C(N)=O)[C@@H](C)O)[C@@H](C)O)C(C)C

Molecular target: T1, human neuropeptide Y2 receptor
Test: radioligand competition (125I-PYY(1-36)), hNPY2R membranes
Summary of the method: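 Commercial human Y2 receptor membranes (0.5 μg protein/well) were incubated with peptide for 2 h at room temperature in 50 mM HEPES, 5 mM MgCl₂, 1 mM CaCl₂, pH 7.4, with 0.2% ovalbumin. Bound radioligand was separated on PEI-soaked GF/C filters and counted by scintillation, and IC₅₀ came from nonlinear sigmoidal regression.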

| Binder | Ki [nM] |
| --- | --- |
| B1 | 0.45 |
| B2 | 1.21 |
| B3 | 1.21 |
| B4 | 10.6 |
| B5 | 4.85 |
| B6 | 6.4 |

Source: US20210139548A1 (published 2021)
